From US20170015742A1 (published 2017)
Substitutions are numbered along the chain they refer to. Names may count otherwise. Each block holds one binder with its values, some of them ahead of it.

Assays:
[1] = target: VEGF-A (UniProt P15692-4 27-191, limits assumed); assay: SPR (Biacore), DVD-Ig captured by anti-human Fc, antigen in flow
Protocol: (§1) For example, approximately 9000 RU of goat anti-human Fc specific polyclonal antibody (Thermo Fisher Scientific Inc., Rockford, Ill.) diluted in 10 mM sodium acetate (pH 4.5) is directly immobilized across a CM5 research grade biosensor chip using a standard amine coupling kit according to manufacturer's instructions and procedures at 25 μg/ml. Unreacted moieties on the biosensor surface were blocked with ethanolamine. For kinetic analysis, rate equations derived from the 1:1 Langmuir binding model were fitted simultaneously to multiple antigen injections (using global fit analysis) with the use of Scrubber 2 (BioLogic Software), Biacore Biaevaluation 4.0.1 software or Biacore T100 Evaluation software. Purified antibodies or DVD-Ig molecules were diluted in running buffer for capture across goat anti-human Fc reaction surfaces. Antibodies or DVD-Ig molecules to be captured as a ligand (1 μg/ml) were injected over reaction matrices at a flow rate of 10 μl/minute. During the assay, all measurements were referenced against the capture surface alone (i.e., with no captured antibody or DVD-Ig molecule). […] The equilibrium dissociation constant KD (M) of the reaction between antibodies and the target antigen was then calculated from the kinetic rate constants by the following formula: KD=Koff/Kₒₙ. Binding was recorded as a function of time and kinetic rate constants were calculated.

[2] = target: PDGF-BB (UniProt P01127 82-190); assay: as above
Protocol: as §1

Chain of PDGF-BB (P01127 82-190): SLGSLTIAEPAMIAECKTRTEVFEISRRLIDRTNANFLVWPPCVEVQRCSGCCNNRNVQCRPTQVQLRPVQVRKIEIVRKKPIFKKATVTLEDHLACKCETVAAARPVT
Chain of VEGF-A (P15692 other isoform, or with tags, fused parts or gaps limits assumed): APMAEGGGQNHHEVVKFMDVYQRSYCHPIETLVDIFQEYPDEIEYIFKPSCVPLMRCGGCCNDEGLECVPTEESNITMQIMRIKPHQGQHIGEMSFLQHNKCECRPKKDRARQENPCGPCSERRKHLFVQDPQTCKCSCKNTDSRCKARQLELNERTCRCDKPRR

Kd [1]: 0.013 nM
kon [1]: 6e+06 M⁻¹ s⁻¹
Kd [2]: 0.013 nM
kon [2]: 1.3e+07 M⁻¹ s⁻¹
B1: 4G8.3-GS(9)-9E8.4 (g) (PR-1572102) (bispecific antibody, human IgG1, kappa, L234A L235A)
heavy: EVQLVQSGSELKKPGASVKVSCKASGYTFTNYGMYWVRQAPGQGLEWMGWINTETGKPTYADDFKGRFVFSLDTSVSTAYLQISSLKAEDTAVYYCARTNYYYRSYIFYFDYWGQGTMVTVSSGGGGSGGGGSEVTLRESGPALVKPTQTLTLTCTFSGFSLSTYGMGVGWIRQPPGKALEWLANIWWDDDKYYNPSLKNRLTISKDTSKNQVVLTMTNMDPVDTATYYCARIESIGTTYSFDYWGQGTMVTVSSASTKGPSVFPLAPSSKSTSGGTAALGCLVKDYFPEPVTVSWNSGALTSGVHTFPAVLQSSGLYSLSSVVTVPSSSLGTQTYICNVNHKPSNTKVDKKVEPKSCDKTHTCPPCPAPEAAGGPSVFLFPPKPKDTLMISRTPEVTCVVVDVSHEDPEVKFNWYVDGVEVHNAKTKPREEQYNSTYRVVSVLTVLHQDWLNGKEYKCKVSNKALPAPIEKTISKAKGQPREPQVYTLPPSREEMTKNQVSLTCLVKGFYPSDIAVEWESNGQPENNYKTTPPVLDSDGSFFLYSKLTVDKSRWQQGNVFSCSVMHEALHNAYTQKSLSLSPGK
light: DTVLTQSPATLSLSPGERATLSCRASESVSTHMHWYQQKPGQAPRLLIYGASNLESGVPARFSGSGSGTDFTLTISSLEPEDFAVYFCQQSWNDPFTFGQGTKLEIKRGGSGGGGSGEFVLTQSPGTLSLSPGERATLSCERSSGDIGDSYVSWYQQKPGQAPRLVIYADDQRPSGIPDRFSGSGSGTDFTLTISRLEPEDFAVYYCQSYDINIDIVFGGGTKVEIKRTVAAPSVFIFPPSDEQLKSGTASVVCLLNNFYPREAKVQWKVDNALQSGNSQESVTEQDSKDSTYSLSSTLTLSKADYEKHKVYACEVTHQGLSSPVTKSFNRGEC
notes: DVD-Ig; outer hBDB-4G8.3 (VEGF), linkers GS-H10/GS-L10, inner hBDI-9E8.4 (PDGF); human IgG1 L234A, L235A, H435A / kappa; also called 4G8.3-GS-9E8.4 (g); hu VEGF 4G8.3-GS-hu PDGF 9E8.4 (germline) [hu IgG1/k]; LALA H435A

Kd [1]: 0.012 nM
kon [1]: 6.3e+06 M⁻¹ s⁻¹
Kd [2]: 0.013 nM
kon [2]: 1.4e+07 M⁻¹ s⁻¹
B2: 4G8.3-GS(11)-9E8.4 (g) (PR-1572103) (bispecific antibody, human IgG1, kappa, L234A L235A)
heavy: B1 heavy
light: DTVLTQSPATLSLSPGERATLSCRASESVSTHMHWYQQKPGQAPRLLIYGASNLESGVPARFSGSGSGTDFTLTISSLEPEDFAVYFCQQSWNDPFTFGQGTKLEIKRGGSGGGGSGGEFVLTQSPGTLSLSPGERATLSCERSSGDIGDSYVSWYQQKPGQAPRLVIYADDQRPSGIPDRFSGSGSGTDFTLTISRLEPEDFAVYYCQSYDINIDIVFGGGTKVEIKRTVAAPSVFIFPPSDEQLKSGTASVVCLLNNFYPREAKVQWKVDNALQSGNSQESVTEQDSKDSTYSLSSTLTLSKADYEKHKVYACEVTHQGLSSPVTKSFNRGEC
notes: DVD-Ig; outer hBDB-4G8.3 (VEGF), linkers GS-H10/GS-L11, inner hBDI-9E8.4 (PDGF); human IgG1 L234A, L235A, H435A / kappa

Kd [1]: 0.011 nM
kon [1]: 6.1e+06 M⁻¹ s⁻¹
Kd [2]: 0.0089 nM
kon [2]: 1.5e+07 M⁻¹ s⁻¹
B3: 4G8.3-GS(noR)-9E8.4 (g) (PR-1572104) (bispecific antibody, human IgG1, kappa, L234A L235A)
heavy: B1 heavy
light: B1 light with R108G, G110S, S111G, G115S, S116G
notes: DVD-Ig; outer hBDB-4G8.3 (VEGF), linkers GS-H10/GS-L10(dR), inner hBDI-9E8.4 (PDGF); human IgG1 L234A, L235A, H435A / kappa

Kd [1]: 0.017 nM
kon [1]: 3.3e+06 M⁻¹ s⁻¹
Kd [2]: 0.013 nM
kon [2]: 1e+07 M⁻¹ s⁻¹
B4: 4G8.3-GS-9E8.4 (PR-1564010) (bispecific antibody, human IgG1, kappa, L234A L235A)
heavy: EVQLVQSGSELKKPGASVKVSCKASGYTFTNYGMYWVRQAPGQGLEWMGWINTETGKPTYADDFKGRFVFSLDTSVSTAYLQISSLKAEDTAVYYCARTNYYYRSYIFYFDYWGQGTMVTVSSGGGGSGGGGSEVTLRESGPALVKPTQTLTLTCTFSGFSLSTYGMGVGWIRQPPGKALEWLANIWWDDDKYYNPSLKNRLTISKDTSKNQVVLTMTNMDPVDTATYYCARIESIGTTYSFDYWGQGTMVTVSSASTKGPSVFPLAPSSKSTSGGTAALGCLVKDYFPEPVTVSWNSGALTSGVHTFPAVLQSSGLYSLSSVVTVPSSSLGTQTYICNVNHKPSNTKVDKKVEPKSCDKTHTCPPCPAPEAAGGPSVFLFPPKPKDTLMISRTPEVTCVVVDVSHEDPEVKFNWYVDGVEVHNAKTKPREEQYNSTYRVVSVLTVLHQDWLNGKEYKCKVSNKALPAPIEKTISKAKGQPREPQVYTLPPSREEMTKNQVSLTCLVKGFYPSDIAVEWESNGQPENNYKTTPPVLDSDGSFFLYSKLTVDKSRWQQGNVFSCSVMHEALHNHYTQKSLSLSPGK
light: B1 light with R228G
notes: DVD-Ig; outer hBDB-4G8.3 (VEGF), linkers GS-H10/GS-L10, inner hBDI-9E8.4 (PDGF); human IgG1 L234A, L235A / kappa

Kd [1]: 0.013 nM
kon [1]: 3.1e+06 M⁻¹ s⁻¹
Kd [2]: 0.019 nM
kon [2]: 7.5e+06 M⁻¹ s⁻¹
B5: 4G8.3-SS-9E8.4 (PR-1564011) (bispecific antibody, human IgG1, kappa, L234A L235A)
heavy: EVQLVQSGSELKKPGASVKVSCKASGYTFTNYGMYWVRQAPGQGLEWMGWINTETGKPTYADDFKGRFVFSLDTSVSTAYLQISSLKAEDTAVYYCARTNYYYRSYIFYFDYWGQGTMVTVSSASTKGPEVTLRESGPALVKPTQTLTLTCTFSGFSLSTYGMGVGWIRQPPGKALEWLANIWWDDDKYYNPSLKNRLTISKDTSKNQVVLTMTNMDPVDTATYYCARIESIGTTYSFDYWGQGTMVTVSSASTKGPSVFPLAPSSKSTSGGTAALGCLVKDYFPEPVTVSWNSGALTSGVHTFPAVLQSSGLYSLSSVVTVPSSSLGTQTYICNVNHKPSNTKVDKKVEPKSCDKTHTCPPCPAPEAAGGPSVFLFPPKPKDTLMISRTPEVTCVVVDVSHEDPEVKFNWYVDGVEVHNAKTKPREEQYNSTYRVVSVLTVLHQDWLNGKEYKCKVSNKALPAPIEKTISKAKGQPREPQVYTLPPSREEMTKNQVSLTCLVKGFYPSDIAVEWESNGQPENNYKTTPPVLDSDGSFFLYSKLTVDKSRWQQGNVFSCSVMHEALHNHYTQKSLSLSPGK
light: DTVLTQSPATLSLSPGERATLSCRASESVSTHMHWYQQKPGQAPRLLIYGASNLESGVPARFSGSGSGTDFTLTISSLEPEDFAVYFCQQSWNDPFTFGQGTKLEIKRTVAAPEFVLTQSPGTLSLSPGERATLSCERSSGDIGDSYVSWYQQKPGQAPRLVIYADDQRPSGIPDRFSGSGSGTDFTLTISRLEPEDFAVYYCQSYDINIDIVFGGGTKVEIKGTVAAPSVFIFPPSDEQLKSGTASVVCLLNNFYPREAKVQWKVDNALQSGNSQESVTEQDSKDSTYSLSSTLTLSKADYEKHKVYACEVTHQGLSSPVTKSFNRGEC
notes: DVD-Ig; outer hBDB-4G8.3 (VEGF), linkers HG-short/LK-short, inner hBDI-9E8.4 (PDGF); human IgG1 L234A, L235A / kappa

Kd [1]: 0.012 nM
kon [1]: 3.1e+06 M⁻¹ s⁻¹
Kd [2]: 0.0086 nM
kon [2]: 1.7e+07 M⁻¹ s⁻¹
B6: 4G8.3-LS-9E8.4 (PR-1564013) (bispecific antibody, human IgG1, kappa, L234A L235A)
heavy: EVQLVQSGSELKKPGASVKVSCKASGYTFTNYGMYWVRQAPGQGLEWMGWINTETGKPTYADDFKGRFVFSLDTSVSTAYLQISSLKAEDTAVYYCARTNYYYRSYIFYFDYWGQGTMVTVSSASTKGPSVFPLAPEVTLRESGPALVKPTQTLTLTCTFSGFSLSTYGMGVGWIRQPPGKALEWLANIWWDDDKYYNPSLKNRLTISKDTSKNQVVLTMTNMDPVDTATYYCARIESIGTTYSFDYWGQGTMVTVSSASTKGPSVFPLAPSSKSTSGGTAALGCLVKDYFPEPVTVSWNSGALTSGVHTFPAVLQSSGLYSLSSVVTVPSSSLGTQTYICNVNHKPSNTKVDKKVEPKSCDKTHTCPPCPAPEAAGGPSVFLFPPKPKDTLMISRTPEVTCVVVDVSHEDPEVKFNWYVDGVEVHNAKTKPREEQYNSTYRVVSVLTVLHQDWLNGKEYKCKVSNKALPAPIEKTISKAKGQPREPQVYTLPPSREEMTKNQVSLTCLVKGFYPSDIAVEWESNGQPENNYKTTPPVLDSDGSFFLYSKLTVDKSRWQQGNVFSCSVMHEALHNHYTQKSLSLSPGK
light: B5 light
notes: DVD-Ig; outer hBDB-4G8.3 (VEGF), linkers HG-long/LK-short, inner hBDI-9E8.4 (PDGF); human IgG1 L234A, L235A / kappa
